The values below come from the supplement of paper PMC5998384.

For data set [1], the system named is HeLa Kyoto. The data set can be described thus: solubility in G1/S (NP-40 vs SDS abundance) (log2 ratio); higher = more soluble. To be noted: cell cycle stage: G1/S.
Data set [2] concerns HeLa Kyoto. The experiment in a line: solubility change mitosis vs G1/S (difference of NP-40 vs SDS log2 ratios) (log2 ratio difference); higher = more soluble in mitosis.
For data set [3], the system named is HeLa Kyoto. The data set can be described thus: melting temperature (median over replicates), in situ; higher = more thermally stable.
In data set [4] the test system is HeLa Kyoto. The data set can be described thus: thermal stability score vs G1/S (z-score of summed log2 fold changes over temperatures); higher = more thermally stable than in G1/S.
Setting [5] is: cell cycle stage: early G1 (4.5 h after nocodazole release).
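For melting temperature (median over replicates), in situ in this document: HeLa Kyoto cells synchronized by double thymidine or nocodazole block, proteins quantified by TMT10plex mass spectrometry, three independent biological replicates.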
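For solubility change mitosis vs G1/S (difference of NP-40 vs SDS log2 ratios) in this document: synchronized HeLa Kyoto cells (double thymidine block for G1/S, nocodazole release for mitosis), protein amounts in NP-40 versus SDS lysates quantified by mass spectrometry, three biological replicates.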
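For solubility in G1/S (NP-40 vs SDS abundance) in this document: HeLa Kyoto cells arrested at G1/S by double thymidine block, proteins quantified by TMT10plex mass spectrometry in mild NP-40 versus SDS extracts, three biological replicates.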
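For thermal stability score vs G1/S (z-score of summed log2 fold changes over temperatures) in this document: synchronized HeLa Kyoto cells, proteins quantified by TMT10plex mass spectrometry, three biological replicates, mitosis taken 0.5 h after nocodazole release, G1/S directly after double thymidine block.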

As to “MPVWGGGNKCGACGRTVYHAEEVQCDGRSFHRCCFLCMVCRKNLDSTTVAIHDEEIYCKSCYGKKYGPKGYGYGQGAGTLNMDRGERLGIKPESVQPHRPTTNPNTSKFAQKYGGAEKCSRCGDSVYAAEKIIGAGKPWHKNCFRCAKCGKSLESTTLTEKEGEIYCKGCYAKNFGPKGFGYGQGAGALVHAQ [CSRP2]”, the “solubility in G1/S (log2)” value with HeLa Kyoto [1] is -0.179. For the same sequence, in the data set on HeLa Kyoto [2], the “solubility change mitosis (log2)” value was -0.0558. Besides, the results for the melting temperature with HeLa Kyoto [3] (cell cycle stage: G1/S) and in the data set with HeLa Kyoto [3] (cell cycle stage: mitosis) were 59.4 °C and 54.6 °C, respectively. For the same sequence, the results for the thermal stability score in the data set on HeLa Kyoto [4] (setting [5]) and in the data set with HeLa Kyoto [4] (cell cycle stage: mitosis) were 1.39 and -3.46, respectively.
For “MPYQYPALTPEQKKELSDIAHRIVAPGKGILAADESTGSIAKRLQSIGTENTEENRRFYRQLLLTADDRVNPCIGGVILFHETLYQKADDGRPFPQVIKSKGGVVGIKVDKGVVPLAGTNGETTTQGLDGLSERCAQYKKDGADFAKWRCVLKIGEHTPSALAIMENANVLARYASICQQNGIVPIVEPEILPDGDHDLKRCQYVTEKVLAAVYKALSDHHIYLEGTLLKPNMVTPGHACTQKFSHEEIAMATVTALRRTVPPAVTGITFLSGGQSEEEASINLNAINKCPLLKPWALTFSYGRALQASALKAWGGKKENLKAAQEEYVKRALANSLACQGKYTPSGQAGAAASESLFVSNHAY [ALDOA]”, the “solubility in G1/S (log2)” value with HeLa Kyoto [1] is 0.345. Moreover, the “solubility change mitosis (log2)” value in the data set with HeLa Kyoto [2] was -0.0218. Moreover, the melting temperature was found to be 58.2 °C in the data set on HeLa Kyoto [3] (cell cycle stage: G1/S) and 58.5 °C in the data set on HeLa Kyoto [3] (cell cycle stage: mitosis). Further, the thermal stability score was -1.95 in the data set on HeLa Kyoto [4] (setting [5]) and -2.35 with HeLa Kyoto [4] (cell cycle stage: mitosis).
In the case of “MQAARMAASLGRQLLRLGGGSSRLTALLGQPRPGPARRPYAGGAAQLALDKSDSHPSDALTRKKPAKAESKSFAVGMFKGQLTTDQVFPYPSVLNEEQTQFLKELVEPVSRFFEEVNDPAKNDALEMVEETTWQGLKELGAFGLQVPSELGGVGLCNTQYARLVEIVGMHDLGVGITLGAHQSIGFKGILLFGTKAQKEKYLPKLASGETVAAFCLTEPSSGSDAASIRTSAVPSPCGKYYTLNGSKLWISNGGLADIFTVFAKTPVTDPATGAVKEKITAFVVERGFGGITHGPPEKKMGIKASNTAEVFFDGVRVPSENVLGEVGSGFKVAMHILNNGRFGMAAALAGTMRGIIAKAVDHATNRTQFGEKIHNFGLIQEKLARMVMLQYVTESMAYMVSANMDQGATDFQIEAAISKIFGSEAAWKVTDECIQIMGGMGFMKEPGVERVLRDLRIFRIFEGTNDILRLFVALQGCMDKGKELSGLGSALKNPFGNAGLLLGEAGKQLRRRAGLGSGLSLSGLVHPELSRSGELAVRALEQFATVVEAKLIKHKKGIVNEQFLLQRLADGAIDLYAMVVVLSRASRSLSEGHPTAQHEKMLCDTWCIEAAARIREGMAALQSDPWQQELYRNFKSISKALVERGGVVTSNPLGF [ACADVL]”, the “solubility in G1/S (log2)” value in the data set with HeLa Kyoto [1] came to 0.117. The “solubility change mitosis (log2)” value in the data set on HeLa Kyoto [2] was -0.118. Further, the melting temperature worked out at 54.9 °C in the data set on HeLa Kyoto [3] (cell cycle stage: G1/S) and 55 °C in the data set on HeLa Kyoto [3] (cell cycle stage: mitosis). Also, the thermal stability score is 0.172 with HeLa Kyoto [4] (setting [5]) and -2.03 in the data set on HeLa Kyoto [4] (cell cycle stage: mitosis).
In the case of “MQAERGARGGRGRRPGRGRPGGDRHSERPGAAAAVARGGGGGGGGDGGGRRGRGRGRGFRGARGGRGGGGAPRGSRREPGGWGAGASAPVEDDSDAETYGEENDEQGNYSKRKIVSNWDRYQDIEKEVNNESGESQRGTDFSVLLSSAGDSFSQFRFAEEKEWDSEASCPKQNSAFYVDSELLVRALQELPLCLRLNVAAELVQGTVPLEVPQVKPKRTDDGKGLGMQLKGPLGPGGRGPIFELKSVAAGCPVLLGKDNPSPGPSRDSQKPTSPLQSAGDHLEEELDLLLNLDAPIKEGDNILPDQTSQDLKSKEDGEVVQEEEVCAKPSVTEEKNMEPEQPSTSKNVTEEELEDWLDSMIS [AVEN]”, the “solubility in G1/S (log2)” value with HeLa Kyoto [1] turned out to be 0.312. Moreover, in the data set with HeLa Kyoto [2], the “solubility change mitosis (log2)” value is 0.0958. Besides, the melting temperature in the data set with HeLa Kyoto [3] (cell cycle stage: G1/S) amounted to 52.9 °C; in the data set on HeLa Kyoto [3] (cell cycle stage: mitosis), 52.6 °C. In addition, the thermal stability score in the data set with HeLa Kyoto [4] (setting [5]) is -0.264; in the data set with HeLa Kyoto [4] (cell cycle stage: mitosis), -2.4.
Consider “MQAGKPILYSYFRSSCSWRVRIALALKGIDYKTVPINLIKDRGQQFSKDFQALNPMKQVPTLKIDGITIHQSLAIIEYLEEMRPTPRLLPQDPKKRASVRMISDLIAGGIQPLQNLSVLKQVGEEMQLTWAQNAITCGFNALEQILQSTAGIYCVGDEVTMADLCLVPQVANAERFKVDLTPYPTISSINKRLLVLEAFQVSHPCRQPDTPTELRA [GSTZ1]”, for which, in the data set on HeLa Kyoto [1], the “solubility in G1/S (log2)” value came to 0.447. Also, in the data set on HeLa Kyoto [2], the “solubility change mitosis (log2)” value turned out to be 0.0886. In addition, the melting temperature turned out to be 53.5 °C with HeLa Kyoto [3] (cell cycle stage: G1/S) and 52.9 °C in the data set on HeLa Kyoto [3] (cell cycle stage: mitosis). Besides, the thermal stability score with HeLa Kyoto [4] (setting [5]) was -2.37; in the data set with HeLa Kyoto [4] (cell cycle stage: mitosis), -2.09.
As to “MQAHELFRYFRMPELVDFRQYVRTLPTNTLMGFGAFAALTTFWYATRPKPLKPPCDLSMQSVEVAGSGGARRSALLDSDEPLVYFYDDVTTLYEGFQRGIQVSNNGPCLGSRKPDQPYEWLSYKQVAELSECIGSALIQKGFKTAPDQFIGIFAQNRPEWVIIEQGCFAYSMVIVPLYDTLGNEAITYIVNKAELSLVFVDKPEKAKLLLEGVENKLIPGLKIIVVMDAYGSELVERGQRCGVEVTSMKAMEDLGRANRRKPKPPAPEDLAVICFTSGTTGNPKGAMVTHRNIVSDCSAFVKATENTVNPCPDDTLISFLPLAHMFERVVECVMLCHGAKIGFFQGDIRLLMDDLKVLQPTVFPVVPRLLNRMFDRIFGQANTTLKRWLLDFASKRKEAELRSGIIRNNSLWDRLIFHKVQSSLGGRVRLMVTGAAPVSATVLTFLRAALGCQFYEGYGQTECTAGCCLTMPGDWTAGHVGAPMPCNLIKLVDVEEMNYMAAEGEGEVCVKGPNVFQGYLKDPAKTAEALDKDGWLHTGDIGKWLPNGTLKIIDRKKHIFKLAQGEYIAPEKIENIYMRSEPVAQVFVHGESLQAFLIAIVVPDVETLCSWAQKRGFEGSFEELCRNKDVKKAILEDMVRLGKDSGLKPFEQVKGITLHPELFSIDNGLLTPTMKAKRPELRNYFRSQIDDLYSTIKV [ACSL1]”, the “solubility in G1/S (log2)” value in the data set on HeLa Kyoto [1] came to 0.0525. In the data set on HeLa Kyoto [2], the “solubility change mitosis (log2)” value was -0.213. The values for the melting temperature in the data set on HeLa Kyoto [3] (cell cycle stage: G1/S) and with HeLa Kyoto [3] (cell cycle stage: mitosis) were 51.6 °C and 52.1 °C, respectively. The thermal stability score was -0.625 in the data set with HeLa Kyoto [4] (setting [5]) and -1.37 in the data set with HeLa Kyoto [4] (cell cycle stage: mitosis).
“MQALRHVVCALSGGVDSAVAALLLRRRGYQVTGVFMKNWDSLDEHGVCTADKDCEDAYRVCQILDIPFHQVSYVKEYWNDVFSDFLNEYEKGRTPNPDIVCNKHIKFSCFFHYAVDNLGADAIATGHYARTSLEDEEVFEQKHVKKPEGLFRNRFEVRNAVKLLQAADSFKDQTFFLSQVSQDALRRTIFPLGGLTKEFVKKIAAENRLHHVLQKKESMGMCFIGKRNFEHFLLQYLQPRPGHFISIEDNKVLGTHKGWFLYTLGQRANIGGLREPWYVVEKDSVKGDVFVAPRTDHPALYRDLLRTSRVHWIAEEPPAALVRDKMMECHFRFRHQMALVPCVLTLNQDGTVWVTAVQAVRALATGQFAVFYKGDECLGSGKILRLGPSAYTLQKGQRRAGMATESPSDSPEDGPGLSPLL [TRMU]”: in the data set on HeLa Kyoto [1], the “solubility in G1/S (log2)” value is -0.242. Besides, the “solubility change mitosis (log2)” value in the data set on HeLa Kyoto [2] is -0.134. In addition, the results for the melting temperature in the data set on HeLa Kyoto [3] (cell cycle stage: G1/S) and with HeLa Kyoto [3] (cell cycle stage: mitosis) were 50.7 °C and 51.1 °C, respectively. Besides, the thermal stability score with HeLa Kyoto [4] (setting [5]) came to 0.5; with HeLa Kyoto [4] (cell cycle stage: mitosis) it was 0.388.
On to “MQPQSVLHSGYFHPLLRAWQTATTTLNASNLIYPIFVTDVPDDIQPITSLPGVARYGVKRLEEMLRPLVEEGLRCVLIFGVPSRVPKDERGSAADSEESPAIEAIHLLRKTFPNLLVACDVCLCPYTSHGHCGLLSENGAFRAEESRQRLAEVALAYAKAGCQVVAPSDMMDGRVEAIKEALMAHGLGNRVSVMSYSAKFASCFYGPFRDAAKSSPAFGDRRCYQLPPGARGLALRAVDRDVREGADMLMVKPGMPYLDIVREVKDKHPDLPLAVYHVSGEFAMLWHGAQAGAFDLKAAVLEAMTAFRRAGADIIITYYTPQLLQWLKEE [ALAD]”, for which the “solubility in G1/S (log2)” value in the data set on HeLa Kyoto [1] is 0.106. Further, the “solubility change mitosis (log2)” value in the data set on HeLa Kyoto [2] is -0.212. The melting temperature in the data set with HeLa Kyoto [3] (cell cycle stage: G1/S) turned out to be 57 °C; in the data set on HeLa Kyoto [3] (cell cycle stage: mitosis) it was 55.2 °C. The thermal stability score is -2.61 in the data set on HeLa Kyoto [4] (setting [5]) and -2.88 with HeLa Kyoto [4] (cell cycle stage: mitosis).
For the sequence “MQRLQVVLGHLRGPADSGWMPQAAPCLSGAPQASAADVVVVHGRRTAICRAGRGGFKDTTPDELLSAVMTAVLKDVNLRPEQLGDICVGNVLQPGAGAIMARIAQFLSDIPETVPLSTVNRQCSSGLQAVASIAGGIRNGSYDIGMACGVESMSLADRGNPGNITSRLMEKEKARDCLIPMGITSENVAERFGISREKQDTFALASQQKAARAQSKGCFQAEIVPVTTTVHDDKGTKRSITVTQDEGIRPSTTMEGLAKLKPAFKKDGSTTAGNSSQVSDGAAAILLARRSKAEELGLPILGVLRSYAVVGVPPDIMGIGPAYAIPVALQKAGLTVSDVDIFEINEAFASQAAYCVEKLRLPPEKVNPLGGAVALGHPLGCTGARQVITLLNELKRRGKRAYGVVSMCIGTGMGAAAVFEYPGN [ACAA1]”, the “solubility in G1/S (log2)” value in the data set with HeLa Kyoto [1] was 0.126. The “solubility change mitosis (log2)” value with HeLa Kyoto [2] is -0.102. In addition, the figures for the melting temperature with HeLa Kyoto [3] (cell cycle stage: G1/S) and with HeLa Kyoto [3] (cell cycle stage: mitosis) were 55.1 °C and 55.3 °C, respectively. Besides, the thermal stability score with HeLa Kyoto [4] (setting [5]) was 0.354; with HeLa Kyoto [4] (cell cycle stage: mitosis) it was -0.509.
